The results in this text go back to PMC11417369, “DNA sequence and chromatin differentiate sequence-specific transcription factor binding in the human malaria parasite Plasmodium falciparum”.

One series concerns the target T1, HDP1 homeodomain-like (Plasmodium falciparum, UniProt Q8IKH4 2990-3078).
T1 sequence: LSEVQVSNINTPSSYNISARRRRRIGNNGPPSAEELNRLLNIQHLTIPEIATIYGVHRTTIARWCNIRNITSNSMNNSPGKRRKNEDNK
The experiment in a line: gcPBM; about 25 ug protein; PBS, 1% milk, 0.2 mg/ml BSA, salmon testes DNA, 0.03% Triton X-100. To be noted: tags: N-terminal GST (pGEX-4T-1), kept; chain copies: 2; label: surface-attached array probe.

In a further series the target is T2, AP2-I_D3 (AP2 domain 3) (UniProt Q8IJW6 775-824).
T2 chain: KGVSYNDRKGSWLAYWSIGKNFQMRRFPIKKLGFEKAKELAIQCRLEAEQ
The experiment in a line: EMSA; EMSA: 1x binding buffer (listed as 100 mM Tris-HCl pH 7.5, 500 mM KCl, 10 mM DTT), 5 mM MgCl2, 25 ng/ul poly dI-dC, 0.05% NP-40, protein in 25% glycerol, 20 min room temperature, 6% PAGE 0.5x TBE. The following applies: protein: recombinant; tags: N-terminal GST; label: biotin; blunt. In general terms: In EMSA bound probe runs differently from free probe, usually more slowly.

For the next series, the target named is T3, AP2-LT D1 (Plasmodium falciparum, UniProt Q8IAM1 2520-2577).
T3 sequence: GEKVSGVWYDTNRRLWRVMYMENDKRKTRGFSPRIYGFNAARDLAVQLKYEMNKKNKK
The experiment in a line: gcPBM; about 25 ug protein; PBS, 1% milk, 0.2 mg/ml BSA, salmon testes DNA, 0.03% Triton X-100. The following applies: tags: N-terminal GST (pGEX-4T-1), kept; label: surface-attached array probe.

The next series concerns the target T4, PF3D7_0420300 D1 (Plasmodium falciparum, UniProt Q8I1N6 1956-2015).
T4 sequence: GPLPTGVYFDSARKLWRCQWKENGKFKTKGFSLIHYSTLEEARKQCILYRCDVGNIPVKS
The description is as above. The following applies: tags: N-terminal GST (pGEX-4T-1), kept; label: surface-attached array probe.

Another series has as its target T5, AP2-HC D1 (Plasmodium falciparum, UniProt Q8IKR9 1316-1374).
T5 sequence: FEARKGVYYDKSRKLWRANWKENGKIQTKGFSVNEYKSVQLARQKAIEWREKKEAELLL
Described as above. To be noted: tags: N-terminal GST (pGEX-4T-1), kept; label: surface-attached array probe.

In the next series the target is T6, AP2-HC AP2 DBD (UniProt Q8IKR9 1320-1370).
T6 sequence: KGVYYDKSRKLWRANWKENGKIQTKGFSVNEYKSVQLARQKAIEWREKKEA
The experiment in a line: EMSA; 1:1 stoichiometry; EMSA: 1x binding buffer (listed as 100 mM Tris-HCl pH 7.5, 500 mM KCl, 10 mM DTT), 5 mM MgCl2, 25 ng/ul poly dI-dC, 0.05% NP-40, protein in 25% glycerol, 20 min room temperature, 6% PAGE 0.5x TBE. The following applies: protein: recombinant; tags: N-terminal GST; label: biotin; blunt.

B1: GTGCAC_site10341 (dsDNA)
DNA 1: GATAAAATGAGACCAGTGCATTATTAGTTGTACACC
DNA 2: GGTGTACAACTAATAATGCACTGGTCTCATTTTATC
Consider B1, for which the binding signal with HDP1 homeodomain-like was 9.81 ln median PBM intensity, better of two orientations. In addition, the binding result in the series with AP2-I_D3 (AP2 domain 3) is “binds”.

B2: CACACA_negctrl_site669 (dsDNA)
DNA 1: TAACTTTTATCCTTAATTCATATATAAGATTAAATC
DNA 2: GATTTAATCTTATATATGAATTAAGGATAAAAGTTA
With B2, the binding signal in the series with AP2-LT D1 was 8.63 ln median PBM intensity, better of two orientations; in the series with PF3D7_0420300 D1, 8.85 ln median PBM intensity, better of two orientations; with AP2-HC D1, 9.41 ln median PBM intensity, better of two orientations.

B3: CACACA_site2428 (dsDNA)
DNA 1: TACACAAACAAACACACACACACACCCCCACAAAAA
DNA 2: TTTTTGTGGGGGTGTGTGTGTGTGTTTGTTTGTGTA
Turning to B3, the binding signal with AP2-LT D1 was 10.7 ln median PBM intensity, better of two orientations; in the series with PF3D7_0420300 D1, 10.5 ln median PBM intensity, better of two orientations; with AP2-HC D1, 12.1 ln median PBM intensity, better of two orientations.

B4: CACACA_site2306 (dsDNA)
DNA 1: CCCCCCCACAGACACACACACATACATACCACATAT
DNA 2: ATATGTGGTATGTATGTGTGTGTGTCTGTGGGGGGG
On to B4, for which the binding signal with AP2-LT D1 was 11 ln median PBM intensity, better of two orientations; in the series with PF3D7_0420300 D1 it was 11 ln median PBM intensity, better of two orientations; with AP2-HC D1, 11.9 ln median PBM intensity, better of two orientations.

B5: CACACA_site7633 (dsDNA)
DNA 1: TGGGAATAACGACACACACACACACGGATATAAATA
DNA 2: TATTTATATCCGTGTGTGTGTGTGTCGTTATTCCCA
As to B5, the binding signal was 10.7 ln median PBM intensity, better of two orientations with AP2-LT D1; 10.4 ln median PBM intensity, better of two orientations in the series with PF3D7_0420300 D1; 11.9 ln median PBM intensity, better of two orientations with AP2-HC D1.

B6: CACACA_site7148 (dsDNA)
DNA 1: CATATTCCCCCCCACACACACACACGCATACATACC
DNA 2: GGTATGTATGCGTGTGTGTGTGTGGGGGGGAATATG
As for B6, in the series with AP2-HC AP2 DBD, the binding result was “binds”. In addition, the binding signal with AP2-LT D1 is 11 ln median PBM intensity, better of two orientations; in the series with PF3D7_0420300 D1, 11 ln median PBM intensity, better of two orientations.

B7: CACACA_site7194 (dsDNA)
DNA 1: CAAACAAACGAACACACACACACACGCAAAAATGAT
DNA 2: ATCATTTTTGCGTGTGTGTGTGTGTTCGTTTGTTTG
For the molecule B7, the binding signal with AP2-LT D1 is 10.8 ln median PBM intensity, better of two orientations; with PF3D7_0420300 D1, 10.4 ln median PBM intensity, better of two orientations; with AP2-HC D1, 11.8 ln median PBM intensity, better of two orientations.

B8: CACACA_site8010 (dsDNA)
DNA 1: CACCCCCACAGACACACACACACACCGATATATATA
DNA 2: TATATATATCGGTGTGTGTGTGTGTCTGTGGGGGTG
On to B8, for which the binding signal is 10.8 ln median PBM intensity, better of two orientations with AP2-LT D1; 10.5 ln median PBM intensity, better of two orientations with PF3D7_0420300 D1; 11.8 ln median PBM intensity, better of two orientations in the series with AP2-HC D1.

B9: CACACA_site2859 (dsDNA)
DNA 1: AAAAAAAAAAAACACACACACACACCCACCCATACA
DNA 2: TGTATGGGTGGGTGTGTGTGTGTGTTTTTTTTTTTT
In the case of B9, the binding signal is 10.8 ln median PBM intensity, better of two orientations in the series with AP2-LT D1; 10.7 ln median PBM intensity, better of two orientations with PF3D7_0420300 D1; 11.8 ln median PBM intensity, better of two orientations in the series with AP2-HC D1.
